These results are taken from patent US11660961B2, “Host cells and methods for producing isopentenol from mevalonate” (The Regents of the University of California, priority 2015, dated 2023).

The test system of data set [1] is E. coli. The settings on record: intracellular accumulation in pathway II strains.
A short description of data set [2]: In vitro hydrolysis of IPP by purified Nudix hydrolase. Conditions: purified enzyme with IPP; up to 16 hours. The data set is classed as biochemical. The method, then: All metabolites are analyzed by liquid chromatography mass spectrometry (LC-MS; Agilent Technologies 1200 Series HPLC system and Agilent Technologies 6210 time-of-flight mass spectrometer) on a ZIC-HILIC column (150 mm length, 2.1-mm internal diameter, and 3.5-μm particle size). Standard chemicals (IPP and IP) are purchased from Sigma-Aldrich (USA). Metabolites are eluted isocratically with a mobile phase composition of 64% (v/v) acetonitrile containing 50 mM ammonium acetate with a flow rate of 0.15 mL/min. IPP and IP from E. coli extracts or enzyme assay are quantified via […] calibration curves ranging from 781.25 nM to 200 μM.

The nature of data set [3]: In vitro hydrolysis of IP to isopentenol (purified enzyme or cell lysates). The data set is classed as biochemical. Conditions: purified NudB or lysates of cells overexpressing the phosphatase. The method, then:
To identify IP-hydrolyzing endogenous phosphatases, single gene knockout mutants of 36 phosphatases, of which substrates are mostly mono-phosphorylated metabolites, are retrieved from the Keio collection (Baba et al., 2006). 1 mL overnight cultures from each mutant are concentrated in 0.5 mL of 50 mM Tris-HCl (pH 8.0) buffer containing 1 mM DTT and ˜50 mg of glass beads (<100 μm, Sigma-Aldrich, USA). Cells are lysed by bead-beating for 2 min at 6.0 M/s (MP biomedicals Fast Prep, USA). After centrifugation of cell lysates at 20,000 g for 10 min, clear supernatant is used for assay reaction containing 0.5 mM isopentenyl monophosphate (IP). An equal volume of ethyl acetate is added to 100 μL of assay reaction after incubating overnight at 30° C., and isopentenol is extracted for 10 min by vigorous mixing.
Coding sequences of agp, aphA, and yqaB are amplified from BW25113 genome by PCR, and they are subsequently cloned to pBbE1a vector (Lee et al., 2011) for over-expression. Expression of these three genes are induced by addition of 0.5 mM IPTG to the cell cultures, and cell lysates of each sample are prepared with three biological replicates as described above for screening of the 36 mutants. 600 μL of assay reactions containing cell lysates, 1 mM DTT are prepared and the reaction is initiated by addition of 0.5 mM IP. […] Quantification of metabolites

Data set [4] deals with E. coli BW25113. Description: Isopentenol production in E. coli. Conditions: expressed in IPP-bypass pathway II in E. coli. The class given is cell-based, Escherichia coli. The method, then:
E. coli BW25113 harboring two plasmids is used for isopentenol production. Seed cultures of all production strains are prepared by growing single colonies in LB medium containing 100 μg/mL ampicillin and 30 μg/mL chloramphenicol overnight at 37° C. with shaking at 200 rpm. The seed cultures are diluted in EZ-Rich defined medium (Teknova, USA) containing 10 g/L glucose (1%, w/v), 100 μg/mL ampicillin and 30 μg/mL chloramphenicol. The E. coli cell cultures are incubated in rotary shakers (200 rpm) at 37° C., and 0.5 mM IPTG is added to induce protein expression at OD600 of 0.6-0.8. To provide different levels of aeration, identical volumes of the cell culture are split into two flasks for incubation at 30° C. with shaking at either 200 rpm or 30 rpm.
For isopentenol quantification, 250 μL of cell culture is combined with 250 μL of ethyl acetate containing 1-butanol (30 mg/L) as an internal standard. This mixture of ethyl acetate and cell culture is vigorously shaken for 15 min and subsequently centrifuged at 13,000 g for 2 min to separate ethyl acetate from the aqueous phase. 100 μL of the ethyl acetate layer was diluted 5-fold, and 1 μL is analyzed by Agilent GCMS equipped with Cyclosil-B column (Agilent, USA) or Thermo GCFID equipped with DB-WAX column (Agilent, USA) for quantitation of isopentenol.

As to `C[C@@](O)(CCOP(=O)(O)O)CC(=O)O` [MVAP, MVA monophosphate], in data set [1], the “toxicity of accumulated metabolite to cells” value is given as “without any significant toxicity”.

B1: NudB: phosphatase (Nudix hydrolase) from E. coli (protein, UniProt P0AFC0 1-150, looked up)
Dihydroneopterin triphosphate …: MKDKVYKRPVSILVVIYAQDTKRVLMLQRRDDPDFWQSVTGSVEEGETAPQAAMREVKEEVTIDVVAEQLTLIDCQRTVEFEIFSHLRHRYAPGVTRNTESWFCLALPHERQIVFTEHLAYKWLDAPAAAALTKSWSNRQAIEQFVINAA
B1: the IPP hydrolysis product entry in data set [2] was “produces only IP”. Besides, the “hydrolysis of IP to isopentenol” value in data set [3] is listed as “do not show the activity of hydrolyzing IP to Isopentenol”.

B2: aphA: E. coli-endogenous phosphatase found to hydrolyze IP to isopentenol (protein, UniProt P0AE22 26-237, looked up)
Class B acid phosphatase: SSPSPLNPGTNVARLAEQAPIHWVSVAQIENSLAGRPPMAVGFDIDDTVLFSSPGFWRGKKTFSPESEDYLKNPVFWEKMNNGWDEFSIPKEVARQLIDMHVRRGDAIFFVTGRSPTKTETVSKTLADNFHIPATNMNPVIFAGDKPGQNTKSQWLQDKNIRIFYGDSDNDITAARDVGARGIRILRASNSTYKPLPQAGAFGEEVIVNSEY
Take B2: in data set [4], the “effect on in vivo isopentenol production” value is given as “does not significantly increase the isopentenol production”. Also, the “hydrolysis of IP to isopentenol” value in data set [3] was “significantly higher and faster hydrolysis activity on IP”.
